The record followed here is PMC6692119 (Nature, 2017).

Assay in all cases: cryo-EM structure
Test [1] deals with T1, Med17 (S. pombe Mediator subunit) (S. pombe, UniProt P87306 1-545).
T1 sequence (looked up): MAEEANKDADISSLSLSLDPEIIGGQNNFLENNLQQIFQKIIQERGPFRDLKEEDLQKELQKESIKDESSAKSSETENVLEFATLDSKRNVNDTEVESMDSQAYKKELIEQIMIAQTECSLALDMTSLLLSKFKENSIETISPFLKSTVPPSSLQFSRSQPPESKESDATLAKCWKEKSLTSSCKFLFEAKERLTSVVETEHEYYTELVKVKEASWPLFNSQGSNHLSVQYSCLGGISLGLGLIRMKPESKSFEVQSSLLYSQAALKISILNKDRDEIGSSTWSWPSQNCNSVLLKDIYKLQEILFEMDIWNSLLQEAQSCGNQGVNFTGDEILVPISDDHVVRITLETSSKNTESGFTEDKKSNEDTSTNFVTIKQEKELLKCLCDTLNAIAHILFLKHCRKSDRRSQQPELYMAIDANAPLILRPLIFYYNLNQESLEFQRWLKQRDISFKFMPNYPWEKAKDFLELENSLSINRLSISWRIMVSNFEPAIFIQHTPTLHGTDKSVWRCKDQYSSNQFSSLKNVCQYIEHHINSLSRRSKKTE

The target of test [2] is T2, Med18 (S. pombe Mediator subunit) (S. pombe, UniProt O14198 1-207).
T2 sequence (looked up): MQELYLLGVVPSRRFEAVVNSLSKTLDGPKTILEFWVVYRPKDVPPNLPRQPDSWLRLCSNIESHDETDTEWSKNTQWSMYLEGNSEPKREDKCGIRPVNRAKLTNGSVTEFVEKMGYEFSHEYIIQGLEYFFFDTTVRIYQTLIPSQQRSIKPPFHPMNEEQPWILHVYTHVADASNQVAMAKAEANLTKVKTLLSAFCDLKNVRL

Test [3] concerns the target T3, Med14 (S. pombe Mediator subunit) (S. pombe, UniProt Q9P7Y4 1-879).
T3 sequence (looked up): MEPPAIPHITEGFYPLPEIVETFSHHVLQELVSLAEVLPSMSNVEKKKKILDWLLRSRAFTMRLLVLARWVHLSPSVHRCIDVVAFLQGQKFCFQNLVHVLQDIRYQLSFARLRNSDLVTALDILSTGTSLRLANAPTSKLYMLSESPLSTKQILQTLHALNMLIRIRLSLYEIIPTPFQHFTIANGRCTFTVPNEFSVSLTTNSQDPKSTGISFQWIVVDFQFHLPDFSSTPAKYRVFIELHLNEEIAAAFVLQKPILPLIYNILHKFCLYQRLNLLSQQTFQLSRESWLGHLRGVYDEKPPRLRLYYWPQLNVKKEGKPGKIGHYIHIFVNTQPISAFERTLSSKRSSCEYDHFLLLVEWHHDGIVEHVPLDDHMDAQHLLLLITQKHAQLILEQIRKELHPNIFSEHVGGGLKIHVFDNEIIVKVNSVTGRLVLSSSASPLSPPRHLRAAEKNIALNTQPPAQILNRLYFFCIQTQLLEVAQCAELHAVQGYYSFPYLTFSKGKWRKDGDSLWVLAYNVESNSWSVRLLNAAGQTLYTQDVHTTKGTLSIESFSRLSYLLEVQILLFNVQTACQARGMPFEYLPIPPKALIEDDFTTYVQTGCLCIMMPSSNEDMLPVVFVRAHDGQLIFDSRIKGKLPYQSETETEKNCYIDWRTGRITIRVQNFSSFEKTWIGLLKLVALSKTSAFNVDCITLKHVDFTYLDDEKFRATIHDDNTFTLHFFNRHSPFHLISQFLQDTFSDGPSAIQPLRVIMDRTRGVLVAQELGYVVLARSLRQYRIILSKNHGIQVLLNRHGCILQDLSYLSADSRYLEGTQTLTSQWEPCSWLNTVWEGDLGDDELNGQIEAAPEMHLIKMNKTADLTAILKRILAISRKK

B1: Med31 (S. pombe Mediator subunit) (natural protein, UniProt Q9USH1 1-139, looked up)
chain: METKWLLSKVPDDKSRFEIELEFVQMLSNPWYLNFLAQHKYFEDEAFLQYLEYMEYWREPEYVKFIIYPTCLHMLTLLKNPQFRNDISRADLSKQVNDEIYYEWLGKGLQQYGSADDATLSQPQQEEDEKKVDVKKENE
In the case of B1, in test [1], the binding result is listed as “binds”.

B2: Med20 (S. pombe Mediator subunit) (natural protein, UniProt Q10317 1-193, looked up)
chain: MPVHGVIYYSSPSMATFLSPAQDNLVRTYFAQHLKKWVVQYKLYRNAVTPKTLEFLKQNINPSMLACVDEATMIDAEPELEDIIVRTKLWNFRQSFTIEGSIYEVGSFKVAIANVLQKSVWKGILFHVTYDGTESVDLARPIIQEFFLKCFLQNNKSVTPVYESFFNQPRHSLDSKLLLQLFKQRIDTVSQRT
For B2, the binding result in test [2] is “binds”.

B3: Med7-TAP (S. pombe Mediator subunit) (natural protein, UniProt O60104 1-376, looked up)
chain: MEPNEGVQLFSAFPPPPPYYKLFTRENIEKVISNMEKEAKHEDDANTLQPKTEEEIESLAKLFKKPSCLTSGTYQMFGDTWRLDEAIPSLKEFGIPELYKDIKDGEDEIEVVEYDPKSNAIVGTSFTRVHDYDKNSPIENEKILEDDQHTAMKEKDNESDKTMKDVEEKTEPSLKKEEEDIQMKEPLDSQDTGAVSASSVNEGFRADQKSKDGETSDLIKIPRRAYELRFLSRSLMLNFLELLGIMAKAPEQFPSKVENIRVLLLNLHHLINDYRPHQSRESLIMLLEKQLKHEESQVELLRTHNRQMTETLEKYKSLDFNMEKEGDVIQQLKSSIKKPLSGAEDEQKSRSMFSKNDEKLKKSLELMEDVIKRDLS
In the case of B3, in test [1], the binding result is on record as “binds”.

B4: Med27 (S. pombe Mediator subunit) (natural protein, UniProt Q10477 1-273, looked up)
chain: MSLEEQRTRDELKHKLLDLNQLHEQLAELRTICPSLLKLLHPETGTSRKFEKSAQEAIEKVNSFYTHLKSSQNVFDYAEKSLQADSSNLLPTYLYNSEDLSNDTENNETKSINGKSALDLKEPHHSELHDNDNFQNSDINIESFKGDIEASGSILTTHENKSFTLKLANELEFIFFHDTRGKFSVYCSSSKDDAITFSINRNNNFLGNLWSLMPKILDYQHLYSKPCDFCKSLISPVYLELPSVRRNANSTVKPTSKDILALHAECVPAQSDL
As to B4, the binding result in test [3] and in test [1] was “binds” in each case.
